Laboratory results taken from the RNAGym collection of RNA variant scans (doi:10.7554/elife.90254).

B1: LINE1-full (parent)
chain: UACGUAGGUGGUUUUCCCCUGAUAGUGCUAAGGGGGCCUGGAAGUUUGGACUGGGCAGAGCUCAACACAGCGUGGCAAAGUGGCUGUGGCUAGACUGCCUCUCUGGAUUCCUCGUCACUCAGCAGGGCAUCUCUGAGAGAAAUGCC

Variants of: B1
Assay: self-cleavage, relative activity (ratio to wild type); higher = more cleavage; in vitro, sequencing; the parent is a self-cleaving ribozyme

Variant	self-cleavage
A2U U15G	0.51
G4A U15C	1.11
C3U U39C	0.79
U1G U100C	1.1
G4A G10A	1.21
G4A G70U	0.11
G4A U96A	0.08
U1C G36A	1.06
U1G A78G	1.25
U1C U81A	1.64
G4A U102C	0.82
G4A U102G	0.26
C3U C118U	1.25
G4U G80C	1.07
C3U U20G	0.53
C3U U20A	0.83
U1G U39C	0.72
C3U A59U	0.56
G4C U15C	1.18
A2U U85G	0.14
C3G U81C	0.75
A2G A57G	0.68
C3A A64G	0
G4C U130A	1.1

Variant	self-cleavage
C3A A138G	0.92
U1C U20C	0.79
A2G G53A	0.74
C3U A24U	1.15
A2G A92C	0.13
A2G A92G	0
U1C U96C	0.12
U1C U96A	0.09
G4A U85A	0.04
C3U A140G	0.97
A2G A140G	0.94
C3U U130C	0.31
U1C G32U	0.21
C3U U104C	1.53
G4A U62C	0
A2G A136G	0.82
U1G U96C	0.87
G4A G75A	0.87
U1C G105A	0.12
A2G G55U	0.49
A2G G55A	0.2
C3A A67G	0.56
C3A G127A	0.43
U1C G83U	0.25

Variant	self-cleavage
A2G U81C	1.14
C3U A124U	1
A2G A141G	0.78
G4C U100C	1.81
C3A U85A	0.13
U1C G106A	0.73
G4C U91A	0.75
A2G U5A	0.42
G4A C116A	1.22
G4C U87C	0.74
U1C G89U	0
G4U U13C	0.93
A2G U13C	0.64
A2G U13A	0.99
A2U A129U	0.75
U1C U115A	0.98
C3U G82U	0.88
G4U A129G	1.07
C3A A65G	0.29
G4A A121G	1.78
C3U A142G	0.47
G4A A31G	0.6
A2C U39A	1.3
G4U C61U	0.08

Variant	self-cleavage
G4U C110A	1.56
A2G C90U	0.15
C3G A50U	0.16
A2G U15G	0.99
U1C G144A	0.72
A2G C37U	0.89
U1C U46A	0.43
U1C U46C	1.11
C3U U132C	1.1
A2G C76U	1.17
A2U U52C	0.67
G4A U13C	1.12
A2U A59G	0
U1C G41A	0.52
U1C G8A	0.49
A2G U115C	1.43
A2G U130C	0.56
A2G U132G	1.6
C3G A69U	0.11
A2U U119C	1.26
U1C U13C	0.62
U1C U13A	0.69
C3A G32A	0.88
U1C U85C	0.2

Variant	self-cleavage
U1G U46G	0.33
A2G U9A	0.56
C3U C123U	0.63
G4A A107G	1.6
G4A U20C	1.2
A2G U119C	1.32
A2G U119A	0.96
U1C G34U	0.68
A2G U109C	1.39
G4C U112C	1.42
C3U U119G	0.98
C3U U119A	0.83
U1C U5C	0.87
U1C U87A	0.23
C3U U96C	0
U1C U102C	1.03
C3U G8C	0.53
C3U U14A	0.24
A2G A6G	0.68
U1C U29G	1.45
G4A A64U	0.72
U1C U73G	1.53
U1C U73C	1.04
C3A C98A	0.28

Variant	self-cleavage
A2G U73C	0.81
A2G C38A	1.05
C3A A121U	0.58
A2U U143A	1
A2G U102C	1.2
A2U U46C	1.76
U1G U12C	0.64
C3A U9C	1.11
G4A U100C	1.21
G4C G135A	0.56
U1C U39A	0.75
G4C A22G	0.99
G4A C17A	0.92
A2C A141G	0.9
C3U A77G	0.71
C3U A77U	0
G4A A94G	0.21
U1C G139U	0.74
G4A U26C	0.61
A2G U14C	0.93
C3U U45A	0.93
C3U U45C	0.8
A2U A142C	1.09
U1C U143A	1.35

Variant	self-cleavage
C3G A78G	0.6
C3U U23A	0.71
C3A A94G	0.3
A2G U26G	0.21
C3U G127A	0.89
U1C U134C	0.38
A2U U23C	0
U1C G48A	0.9
A2U A138G	1.06
C3G U52A	0.8
C3U G72A	0.05
G4A U112C	1.31
C3U U15C	0.45
G4A A42U	0.78
A2C U62C	0.11
G4U A69G	0.32
A2G G36A	0.7
G4C U85C	0.13
G4A U87A	0.12
G4A A67G	0.62
G4A A136U	1.51
G4A G34A	0.66
A2G C71U	0.7
